{"source": "patent US20040091985A1", "about": "“NAD phosphite oxidoreductase, a novel catalyst from bacteria for regeneration of NAD(P)H” (priority 2002, published 2004)", "proteins": {"B1": {"name": "PtxD (Stutzerimonas stutzeri) (protein)", "chain": "MLPKLVITHRVHDEILQLLAPHCELMTNQTDSTLTREEILRRCRDAQAMMAFMPDRVDADFLQACPELRVVGCALKGFDNFDVDACTARGVWLTFVPDLLTVPTAELAIGLAVGLGRHLRAADAFVRSGEFQGWQPQFYGTGLDNATVGILGMGAIGLAMADRLQGWGATLQYHEAKALDTQTEQRLGLRQVACSELFASSDFILLALPLNADTQHLVNAELLALVRPGALLVNPCRGSVVDEAAVLAALERGQLGGYAADVFEMEDWARADRPRLIDPALLAHPNTLFTPHIGSAVRAVRLEIERCAAQNIIQVLAGARPINAANRLPKAEPAAC"}}, "substrate": "NC(=O)c1ccc[n+]([C@@H]2O[C@H](COP(=O)([O-])OP(=O)(O)OC[C@H]3O[C@@H](n4cnc5c(N)ncnc54)[C@H](O)[C@@H]3O)[C@@H](O)[C@H]2O)c1", "assay": "purified protein, by the assay type", "details": "pH 7.25, 30.0 °C", "note": "“And” between values parts separate entries of the source, which are not always exact repeats. Equal values may be shown once.", "data": [{"protein": "B1", "values": [{"measurement": "Km", "setting": "other: Table 4, NAP as A, fit to Equilibrium ordered mechanism", "value": 4520, "unit": "µM"}, {"measurement": "Km", "setting": "other: Table 4, NAP as A, fit to Pingpong mechanism", "value": 12800, "unit": "µM"}, {"measurement": "Km", "setting": "other: substrates of PtxD", "value": "54.6 ± 6.7 µM and 50 µM"}]}]}
